Test results taken from publication PMC10718521, “Complexity of αvβ6-integrin targeting RGD peptide trimers: emergence of non-specific binding by synergistic interaction” (RSC Medicinal Chemistry, 2023).

Columns and labels:
[1] = in vivo; parameters: species or system mice; conditions: CB17 SCID, mouse, total radioactivity
From the text: The biodistribution of all ^68Ga-labeled peptide trimers was investigated in severe combined immunodeficiency (SCID) mice bearing subcutaneous xenografts of the αvβ6-integrin expressing human lung adenocarcinoma cell line H2009 on their right shoulders.
(§1) Unless otherwise noted, the materials and the instrumentation used (analytical and preparative HPLC, ESI-MS, gamma counter, centrifuge), and the experimental procedures (^68Ga radiolabeling and radio-TLC for quality control, determination of log D7.4, cultivation of H2009 human lung adenocarcinoma cells, generation of tumor xenografts in CB17 SCID mice, small-animal PET, and biodistribution) were described before.[19] All animal experiments have been carried out according to applicable law and institutional guidelines of Technical University of Munich, and were approved by the responsible local authority (Regierung von Oberbayern). The H2009 cells were regularly authenticated and tested for mycoplasma contamination. The affinities of the pentynoic amide functionalized peptides were determined employing a well-established ELISA protocol on immobilized integrins.[36] TRAP-triazide,[38]FF (previously termed AvB6),[32] and YY (also referred to as Tyr2-alkyne)[33] were synthesized as described previously. RP-HPLC for assessment of compound polarity was done on a 150 × 4.6 mm ReproSil-Pur 120 C18-AQ 5 μm column, with a flow of 0.75 mL min^−1 and a gradient of 10–50% MeCN in water, both containing 0.1% trifluoroacetic acid, within 15 min. The required ^natGa-complexes of the peptide trimers were synthesized by reaction with equimolar amounts of aq. GaCl3 as described.[19]

[2] = format: physicochemical; conditions: pH 7.4
Protocol: The trimers were labeled with ^68Ga for biodistribution and small-animal PET experiments employing a fully automated method.[39] Non-radioactive reference compounds were obtained by complexation of equimolar amounts of ^natGa^3+ in form of the aq. chloride solution.[39] The polarity of the ^68Ga or ^natGa^3+ containing conjugates, respectively, was assessed by two established proxies, namely the n-octanol/water distribution coefficient at pH 7.4, log D7.4, and the retention time tR on a reverse-phase HPLC column with a suitable liquid-phase gradient (10–50% acetonitrile in water with 0.1% trifluoroacetic acid) (see Fig. 2a). […] A measurable decrease of the log D7.4 was only observed for ≥3 Tyr. […]
as §1

[3] = tumor/organ ratio Heart (myocard)
[4] = tumor/organ ratio Large intestine (empty)
[5] = tumor/organ ratio Small intestine (empty)
[6] = tumor/organ ratio Stomach (empty)

Structure (SMILES) | tissue uptake at 1.5 h ([1]; Adrenals uptake) | tissue uptake at 1.5 h ([1]; Blood uptake) | tissue uptake at 1.5 h ([1]; Heart (myocard) uptake) | tissue uptake at 1.5 h ([1]; Kidneys uptake) | tissue uptake at 1.5 h ([1]; Large intestine (empty) uptake) | tissue uptake at 1.5 h ([1]; Liver uptake) | tissue uptake at 1.5 h ([1]; Lung uptake) | tissue uptake at 1.5 h ([1]; Muscle uptake) | tissue uptake at 1.5 h ([1]; Pancreas uptake) | tissue uptake at 1.5 h ([1]; Small intestine (empty) uptake) | tissue uptake at 1.5 h ([1]; Spleen uptake) | tissue uptake at 1.5 h ([1]; Stomach (empty) uptake) | tissue uptake at 1.5 h ([1]; Tumor H2009 uptake) | tissue to tissue ratio at 1.5 h ([1]; tumor/organ ratio Adrenals) | tissue to tissue ratio at 1.5 h ([1]; tumor/organ ratio Blood) | tissue to tissue ratio at 1.5 h [1, 3] | tissue to tissue ratio at 1.5 h ([1]; tumor/organ ratio Kidneys) | tissue to tissue ratio at 1.5 h [1, 4] | tissue to tissue ratio at 1.5 h ([1]; tumor/organ ratio Liver) | tissue to tissue ratio at 1.5 h ([1]; tumor/organ ratio Lung) | further results
CC(C)C[C@@H]1NC(=O)[C@H](CC(=O)O)NC(=O)CNC(=O)[C@H](CCCNC(=N)N)NC(=O)[C@H](Cc2ccccc2)NC(=O)[C@H](CCCCNC(=O)CCc2cn(CCCNC(=O)CCP(=O)(O)CN3CCN(CP(=O)(O)CCC(=O)NCCCn4cc(CCC(=O)NCCCC[C@H]5C(=O)N[C@@H](Cc6ccccc6)C(=O)N[C@@H](CCCNC(=N)N)C(=O)NCC(=O)N[C@@H](CC(=O)O)C(=O)N[C@@H](CC(C)C)C(=O)N[C@@H](C)C(=O)N[C@@H](Cc6ccc(O)cc6)C(=O)N6CCC[C@@H]6C(=O)N5C)nn4)CCN(CP(=O)(O)CCC(=O)NCCCn4cc(CCC(=O)NCCCC[C@H]5C(=O)N[C@@H](Cc6ccccc6)C(=O)N[C@@H](CCCNC(=N)N)C(=O)NCC(=O)N[C@@H](CC(=O)O)C(=O)N[C@@H](CC(C)C)C(=O)N[C@@H](C)C(=O)N[C@@H](Cc6ccc(O)cc6)C(=O)N6CCC[C@@H]6C(=O)N5C)nn4)CC3)nn2)N(C)C(=O)[C@H]2CCCN2C(=O)[C@H](Cc2ccc(O)cc2)NC(=O)[C@H](C)NC1=O (68Ga complex, metal not drawn) [Y3F] | 0.77 ± 0.42 %ID/g | 0.96 ± 0.3 %ID/g | 0.62 ± 0.15 %ID/g | 71.1 ± 15 %ID/g | 5.15 ± 2.63 %ID/g | 0.95 ± 0.22 %ID/g | 4.83 ± 1.54 %ID/g | 0.66 ± 0.25 %ID/g | 0.34 ± 0.11 %ID/g | 2.6 ± 0.9 %ID/g | 2.38 ± 0.31 %ID/g | 5.64 ± 1.94 %ID/g | 6.69 ± 1.21 %ID/g | 10.3 ± 3.8 | 7.2 ± 1.1 | 10.9 ± 0.8 | 0.1 | 1.6 ± 0.7 | 7.1 ± 0.7 | 1.5 ± 0.3 | tissue to tissue ratio at 1.5 h ([1]; tumor/organ ratio Muscle): 10.9 ± 3; tissue to tissue ratio at 1.5 h ([1]; tumor/organ ratio Pancreas): 20.4 ± 3.1; tissue to tissue ratio at 1.5 h [1, 5]: 2.7 ± 0.5; tissue to tissue ratio at 1.5 h ([1]; tumor/organ ratio Spleen): 2.8 ± 0.4; tissue to tissue ratio at 1.5 h [1, 6]: 1.3 ± 0.3; logD [2]: -1.8 ± 0.1
CC(C)C[C@@H]1NC(=O)[C@H](CC(=O)O)NC(=O)CNC(=O)[C@H](CCCNC(=N)N)NC(=O)[C@H](Cc2ccc(O)cc2)NC(=O)[C@H](CCCCNC(=O)CCc2cn(CCCNC(=O)CCP(=O)(O)CN3CCN(CP(=O)(O)CCC(=O)NCCCn4cc(CCC(=O)NCCCC[C@H]5C(=O)N[C@@H](Cc6ccc(O)cc6)C(=O)N[C@@H](CCCNC(=N)N)C(=O)NCC(=O)N[C@@H](CC(=O)O)C(=O)N[C@@H](CC(C)C)C(=O)N[C@@H](C)C(=O)N[C@@H](Cc6ccccc6)C(=O)N6CCC[C@@H]6C(=O)N5C)nn4)CCN(CP(=O)(O)CCC(=O)NCCCn4cc(CCC(=O)NCCCC[C@H]5C(=O)N[C@@H](Cc6ccc(O)cc6)C(=O)N[C@@H](CCCNC(=N)N)C(=O)NCC(=O)N[C@@H](CC(=O)O)C(=O)N[C@@H](CC(C)C)C(=O)N[C@@H](C)C(=O)N[C@@H](Cc6ccccc6)C(=O)N6CCC[C@@H]6C(=O)N5C)nn4)CC3)nn2)N(C)C(=O)[C@H]2CCCN2C(=O)[C@H](Cc2ccccc2)NC(=O)[C@H](C)NC1=O (68Ga complex, metal not drawn) [Y3Y] | 0.81 ± 0.41 %ID/g | 1.13 ± 0.25 %ID/g | 0.66 ± 0.16 %ID/g | 72.6 ± 5.25 %ID/g | 3.94 ± 1.85 %ID/g | 1.23 ± 0.19 %ID/g | 4.96 ± 0.48 %ID/g | 0.51 ± 0.11 %ID/g | 0.33 ± 0.07 %ID/g | 1.69 ± 0.2 %ID/g | 3.82 ± 0.82 %ID/g | 4.03 ± 1.36 %ID/g | 5.92 ± 2.07 %ID/g | 6.7 ± 3 | 4.9 ± 0.5 | 8.5 ± 1.1 | 0.1 | 1.8 ± 1.1 | 4.4 ± 0.7 | 1 ± 0.2 | tissue to tissue ratio at 1.5 h ([1]; tumor/organ ratio Muscle): 10.7 ± 1.1; tissue to tissue ratio at 1.5 h ([1]; tumor/organ ratio Pancreas): 17 ± 1.4; tissue to tissue ratio at 1.5 h [1, 5]: 3.2 ± 0.6; tissue to tissue ratio at 1.5 h ([1]; tumor/organ ratio Spleen): 1.4 ± 0.2; tissue to tissue ratio at 1.5 h [1, 6]: 1.5 ± 0.7; logD [2]: -1.7 ± 0.1
CC(C)C[C@@H]1NC(=O)[C@H](CC(=O)O)NC(=O)CNC(=O)[C@H](CCCNC(=N)N)NC(=O)[C@H](Cc2ccccc2)NC(=O)[C@H](CCCCNC(=O)CCc2cn(CCCNC(=O)CCP(=O)(O)CN3CCN(CP(=O)(O)CCC(=O)NCCCn4cc(CCC(=O)NCCCC[C@H]5C(=O)N[C@@H](Cc6ccc(O)cc6)C(=O)N[C@@H](CCCNC(=N)N)C(=O)NCC(=O)N[C@@H](CC(=O)O)C(=O)N[C@@H](CC(C)C)C(=O)N[C@@H](C)C(=O)N[C@@H](Cc6ccc(O)cc6)C(=O)N6CCC[C@@H]6C(=O)N5C)nn4)CCN(CP(=O)(O)CCC(=O)NCCCn4cc(CCC(=O)NCCCC[C@H]5C(=O)N[C@@H](Cc6ccc(O)cc6)C(=O)N[C@@H](CCCNC(=N)N)C(=O)NCC(=O)N[C@@H](CC(=O)O)C(=O)N[C@@H](CC(C)C)C(=O)N[C@@H](C)C(=O)N[C@@H](Cc6ccc(O)cc6)C(=O)N6CCC[C@@H]6C(=O)N5C)nn4)CC3)nn2)N(C)C(=O)[C@H]2CCCN2C(=O)[C@H](Cc2ccccc2)NC(=O)[C@H](C)NC1=O (68Ga complex, metal not drawn) [Y4] | 0.71 ± 0.37 %ID/g | 0.86 ± 0.26 %ID/g | 0.47 ± 0.12 %ID/g | 91.3 ± 8.28 %ID/g | 2.29 ± 0.59 %ID/g | 0.93 ± 0.14 %ID/g | 3.22 ± 0.63 %ID/g | 1.41 ± 0.06 %ID/g | 0.28 ± 0.08 %ID/g | 1.35 ± 0.53 %ID/g | 1.57 ± 0.57 %ID/g | 4.92 ± 1.06 %ID/g | 4.47 ± 0.96 %ID/g | 7.1 ± 1.9 | 5.5 ± 1.4 | 9.6 ± 1.3 | 0.1 | 2.1 ± 0.6 | 5 ± 0.5 | 1.4 ± 0.2 | tissue to tissue ratio at 1.5 h ([1]; tumor/organ ratio Muscle): 12.2 ± 2.8; tissue to tissue ratio at 1.5 h ([1]; tumor/organ ratio Pancreas): 16.5 ± 1.6; tissue to tissue ratio at 1.5 h [1, 5]: 3.7 ± 1; tissue to tissue ratio at 1.5 h ([1]; tumor/organ ratio Spleen): 3 ± 0.7; tissue to tissue ratio at 1.5 h [1, 6]: 1 ± 0.3; logD [2]: -1.9 ± 0.1
